This note sets out measurements from patent publication US20210130452A1 (Merck KGaA, published 2021).

The target in experiment [1] is T1, mouse IL-17F (mouse, UniProt Q7TNI7 29-161).
T1 sequence (looked up): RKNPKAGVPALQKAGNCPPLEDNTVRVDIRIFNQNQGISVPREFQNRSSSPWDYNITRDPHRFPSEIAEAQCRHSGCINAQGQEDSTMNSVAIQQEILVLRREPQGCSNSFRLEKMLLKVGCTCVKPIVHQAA
In words: binding ELISA.
Description: (§1) Binding of a selected panel of anti-IL-17 Nanobodies to IL-17 of other species was assessed using a binding ELISA. […] HRP (horseradish peroxidase) conjugated anti-myc (Serotec, MCA 2200P) was used for detection using esTMB as substrate.

Experiment [2] deals with T2, rat IL-17F (rat, UniProt Q5BJ95 29-161).
T2 sequence (looked up): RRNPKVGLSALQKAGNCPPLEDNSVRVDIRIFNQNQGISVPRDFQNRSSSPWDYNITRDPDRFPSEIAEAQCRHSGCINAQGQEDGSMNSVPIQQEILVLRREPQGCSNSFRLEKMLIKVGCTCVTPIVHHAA
In words: binding ELISA. A general note: ELISA stands for enzyme-linked immunosorbent assay.
Description: as §1

In experiment [3] the target is T3, human IL-17E (human, UniProt Q9H293 33-177).
T3 construct: expressed in E. coli; also called hIL-17E
T3 sequence (looked up): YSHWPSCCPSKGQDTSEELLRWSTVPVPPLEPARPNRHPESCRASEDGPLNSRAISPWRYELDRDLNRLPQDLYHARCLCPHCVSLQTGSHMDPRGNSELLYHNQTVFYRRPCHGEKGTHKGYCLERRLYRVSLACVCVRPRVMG
In words: SPR, cytokine on chip. On the technique in general: In SPR one partner is held on a chip, and binding of the other changes the refractive index at the surface.
Excerpt: (§2) Human IL-17B, IL-17C, IL-17D or IL-17E were all expressed in E. coli, and covalently bound to a CM sensor chip surface via amine coupling using EDC/NHS for activation and HCl for deactivation.
(§3) Next, binding buffer was sent over the chip at the same flow rate to allow spontaneous dissociation of bound Nanobody or antibody.

For experiment [4], the target named is T4, human IL-17B (human, UniProt Q9UHF5 21-180).
T4 construct: expressed in E. coli; also called hIL-17B
T4 sequence (looked up): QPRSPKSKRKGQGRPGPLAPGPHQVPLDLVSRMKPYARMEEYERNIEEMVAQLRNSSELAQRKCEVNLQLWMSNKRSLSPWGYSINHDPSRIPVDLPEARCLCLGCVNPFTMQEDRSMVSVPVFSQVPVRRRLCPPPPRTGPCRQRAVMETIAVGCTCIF
Put plainly: SPR, cytokine on chip.
Excerpt: as §2, §3

Experiment [5] concerns the target T5, human IL-17C (human, UniProt Q9P0M4 19-197).
T5 construct: expressed in E. coli; also called hIL-17C
T5 sequence (looked up): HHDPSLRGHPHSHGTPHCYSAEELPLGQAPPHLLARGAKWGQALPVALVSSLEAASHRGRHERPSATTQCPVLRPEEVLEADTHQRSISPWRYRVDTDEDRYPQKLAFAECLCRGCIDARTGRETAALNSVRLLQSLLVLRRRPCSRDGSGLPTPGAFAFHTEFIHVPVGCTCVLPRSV
In words: SPR, cytokine on chip.
Excerpt: as §2, §3

In experiment [6] the target is T6, human IL-17D (human, UniProt Q8TAD2 18-202, limits assumed).
T6 construct: expressed in E. coli; also called hIL-17D
T6 sequence (looked up): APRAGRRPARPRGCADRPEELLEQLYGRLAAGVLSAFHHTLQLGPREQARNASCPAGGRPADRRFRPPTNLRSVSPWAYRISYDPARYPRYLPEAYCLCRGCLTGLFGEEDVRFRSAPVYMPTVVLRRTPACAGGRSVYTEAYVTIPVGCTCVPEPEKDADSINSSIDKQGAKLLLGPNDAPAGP
Put plainly: SPR, cytokine on chip.
Excerpt: as §2, §3

Experiment [7] addresses guinea pig IL-17A (guinea pig). Put plainly: ELISA, coated IL-17A.
Description: as §1
The target in experiment [8] is T7, marmoset IL-17A (marmoset, IL-17A is a disulfide-linked homodimer. One chain is given.).
T7 chain: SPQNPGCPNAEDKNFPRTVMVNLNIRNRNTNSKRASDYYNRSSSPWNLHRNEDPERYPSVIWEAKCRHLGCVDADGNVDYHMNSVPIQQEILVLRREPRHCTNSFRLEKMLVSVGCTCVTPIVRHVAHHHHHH
Put plainly: ELISA, coated IL-17A.
Description: as §1

Experiment [9] addresses T8, rat IL-17A (rat, UniProt Q61453 18-150, limits assumed).
T8 sequence (looked up): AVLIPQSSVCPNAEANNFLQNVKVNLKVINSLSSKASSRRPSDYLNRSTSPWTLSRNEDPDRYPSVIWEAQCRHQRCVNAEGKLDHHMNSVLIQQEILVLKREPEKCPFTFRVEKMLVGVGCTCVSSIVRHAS
Put plainly: ELISA, coated IL-17A.
Description: as §1

Experiment [10] addresses T9, mouse IL-17A (mouse, UniProt Q62386 26-158).
T9 sequence (looked up): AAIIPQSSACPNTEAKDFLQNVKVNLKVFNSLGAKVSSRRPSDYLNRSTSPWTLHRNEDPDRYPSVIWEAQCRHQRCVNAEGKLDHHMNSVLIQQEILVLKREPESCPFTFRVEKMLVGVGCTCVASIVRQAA
Put plainly: ELISA, coated IL-17A.
Description: as §1

In experiment [11] the target is T10, human IL-17A (human, UniProt Q16552 24-155).
T10 construct: secreted form (GenBank U32659) expressed in Hek293 with C-terminal 6-His; also called hIL-17A; IL-17A-6HIS
In words: ELISA, coated IL-17A.
T10 sequence (Q16552 other isoform, or with tags, fused parts or gaps): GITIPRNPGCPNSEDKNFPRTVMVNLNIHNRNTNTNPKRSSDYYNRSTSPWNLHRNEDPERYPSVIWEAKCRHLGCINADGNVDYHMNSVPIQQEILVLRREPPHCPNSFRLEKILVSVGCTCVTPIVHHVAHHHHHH
Description: as §1

The target in experiment [12] is T11, mouse IL-17F (mouse, UniProt Q7TNI7 29-161).
T11 sequence (looked up): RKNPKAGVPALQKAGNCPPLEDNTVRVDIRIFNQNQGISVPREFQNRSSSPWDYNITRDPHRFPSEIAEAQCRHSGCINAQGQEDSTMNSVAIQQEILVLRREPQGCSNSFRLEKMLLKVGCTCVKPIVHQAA
Put plainly: ELISA, coated IL-17F.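 Note: binding ELISA on coated antigen from various species, with bound Nanobodies revealed by an HRP-linked anti-myc antibody and esTMB substrate.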
Description: as §1

For experiment [13], the target named is T12, rat IL-17F (rat, UniProt Q5BJ95 29-161).
T12 sequence (looked up): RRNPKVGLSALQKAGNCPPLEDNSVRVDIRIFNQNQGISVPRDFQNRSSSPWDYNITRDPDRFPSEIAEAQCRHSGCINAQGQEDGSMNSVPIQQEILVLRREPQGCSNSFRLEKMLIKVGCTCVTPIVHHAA
In words: ELISA, coated IL-17F.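 Note: binding ELISA on coated antigen from various species, with bound Nanobodies revealed by an HRP-linked anti-myc antibody and esTMB substrate.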
Description: as §1

For experiment [14], the target named is T10, human IL-17A. In words: SPR, IL-17A-Nanobody complex over captured IL-17RA.
Excerpt: The receptor (IL-17RA or IL-17RC) was captured via its human Fc-tail by an anti-human IgG-Fc antibody coated on the chip.
Experiment [15] concerns the target T13, human IL-17A/F heterodimer (human, UniProt Q16552 24-155; Q96PD4 31-163, limits assumed).
T13 construct: bought, made in E. coli (R&D Systems 5194-IL/CF); also called hIL-17A/F; hIL17A/F
Put plainly: SPR (Biacore) off-rate.

Experiment [16] addresses T14, human IL-17F (human, UniProt Q96PD4 31-163).
T14 construct: made in Hek293 cells (GenBank AF384857); also called hIL-17F; hIL17F
T14 sequence: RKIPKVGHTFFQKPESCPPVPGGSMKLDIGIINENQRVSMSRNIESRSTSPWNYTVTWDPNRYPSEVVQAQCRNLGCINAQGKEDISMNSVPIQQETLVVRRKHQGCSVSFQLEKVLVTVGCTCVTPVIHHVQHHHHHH
Put plainly: SPR (Biacore) off-rate.

For experiment [17], the target named is T15, human IL-17A (human, UniProt Q16552 24-155).
T15 construct: secreted form made in Hek293 cells (GenBank U32659); also called hIL-17A; hIL17A
Put plainly: SPR (Biacore) off-rate.
T15 sequence (Q16552 other isoform, or with tags, fused parts or gaps): as the sequence (Q16552 other isoform, or with tags, fused parts or gaps) above

T13 sequence (Q16552 24-155 limits assumed, chain 1 of 2, one chain of several): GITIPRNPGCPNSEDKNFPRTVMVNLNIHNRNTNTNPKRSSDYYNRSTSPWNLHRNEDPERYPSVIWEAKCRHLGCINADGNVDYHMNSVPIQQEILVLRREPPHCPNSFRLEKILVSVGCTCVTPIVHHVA

B1: 24G10 (VHH)
VHH: EVQLVESGGGLVQAGGSLRLSCGAAGGTFSSYATGWFRQAPGKEREFVAVFRWSDSHTAYADSVKGRFTISRDGAKNTLYLQMSSLKPEDTAIYYCTTATRPGEWDYWGQGTQVTVSS
notes: Class 3
With B1, the binding result is given as “no binding (tested: 250 nM)” in experiment [1]; “no binding (tested: 250 nM)” in experiment [2]; “no binding” in [3]; “no binding” in experiment [4]; “no binding” in [5]; “no binding” in experiment [6].

B2: 11C08 (VHH)
VHH: EVQLVESGGGLVQAGGSLRLSCAASGVIFRLNAMGWYRAAPGKQRELVAIIVNGGSTNYADSVKGRFTISRDSAKNAVYLQMNSLKPEDTAVYYCYYNIPGDVYWGQGTQVTVSS
notes: Class 4
On to B2, for which the OD in experiment [7] was 0.002 OD; in experiment [8], 0.671 OD; in [9], 0.002 OD; in experiment [10], -0.005 OD; in experiment [11], 1.71 OD; in experiment [12], -0.0025 OD. Moreover, in [13], the OD amounted to 0.0005 OD. Also, the “% Biacore binding (IL-17A-NB)-IL-17RA” value in experiment [14] came out at 3.25%.

B3: 03C07 (VHH)
VHH: EVQLVESGGGLVQAGGSLRLSCAASGFTFDDYAIGWFRQAPGKEREAVSCFSSSDGSIYYADSVKGRFTISSDNAKNTVYLQMNSLKPEDTAVYYCAGGGGSYYYTQLNYCYDMDYWGKGTQVTVSS
notes: Class 2
Take B3: the OD in experiment [7] was 0.004 OD; in experiment [8], 1.7 OD; in experiment [9], 0.003 OD; in [10], -0.004 OD; in [11], 1.7 OD; in experiment [12], 0.0005 OD. Also, in experiment [13], the OD turned out to be 0.0015 OD. The “% Biacore binding (IL-17A-NB)-IL-17RA” value in experiment [14] was -0.08%.

B4: 02A08 (VHH)
VHH: EVQLVESGGGVVQPGGSLRLSCADSERSFSFNAMGWFRQAPGKEREFVAAISATGDDTYYADSVKGRFAISRDTARNTVYLQMNSLKPEDTAVYYCGARVNFDGTVSYTNDYAYWGQGTQVTVSS
notes: Class 2
For B4, the OD in experiment [7] is 0.002 OD; in experiment [8] it was 1.95 OD; in experiment [9], 0.002 OD; in [10], -0.001 OD; in experiment [11], 1.95 OD; in [13] it was 0.0035 OD. Further, the “% Biacore binding (IL-17A-NB)-IL-17RA” value in experiment [14] stood at 0.46%.

B5: 06E11 (VHH)
VHH: EVQLVESGGGLVQAGGSLRLSCPVSGRAFSRGRLGWFRQAPGKEREFVAVAHWSGAITSYADSVKGRFTFSRDNAKNTMNLQMNSLKPEDTAVYYCAADSETSGNWVYWGQGTQVTVSS
notes: Class 3
Regarding B5, the binding result in [1] is “no binding (tested: 250 nM)”; in experiment [2] it was “no binding (tested: 250 nM)”; in experiment [3] it was “no binding”; in experiment [4], “no binding”; in experiment [5] it was “no binding”; in [6] it was “no binding”.

B6: 13B05 (VHH)
VHH: EVQLVESGGRLVQAGGSLRLSCAASGRTFTSYPMGWFRQAPGKEREFVAAISMSGDDTAYTDFVRGRFTISRDDARNTVYLHMTSLKPEDTAVYYCAARTSYDGTYDYIDDYSYWGQGTQVTVSS
notes: Class 4
Consider B6, for which the OD in experiment [7] was 0.001 OD; in experiment [8], 1.91 OD; in experiment [9], 0.003 OD; in [10], -0.006 OD; in [11] it was 1.82 OD; in experiment [12], 0.0205 OD. This molecule came in with an OD in experiment [13] of 0.0095 OD. In addition, the “% Biacore binding (IL-17A-NB)-IL-17RA” value in experiment [14] was -0.89%.

B7: 13E05 (VHH)
VHH: EVQLVESGGGKVQAGDSLTLSCVASGGTFSNYAAWFRQAPGKDRRELVVSIFRTGSITYTADSVKGRFTASRVNTKNTVYLQMNSLKPEDTAVYYCASAYNPGVGYDYWGQGTQVTVSS
notes: Class 4
For the molecule B7, the OD in experiment [7] was 0.006 OD; in experiment [8] it was 1.89 OD; in experiment [9], 0.003 OD; in [10] it was 0.004 OD; in experiment [11], 1.96 OD; in experiment [12] it was 0.0005 OD. For the same molecule, the OD in experiment [13] amounted to 0.0025 OD. In [14], the “% Biacore binding (IL-17A-NB)-IL-17RA” value amounted to 0.54%.

B8: IL17MS3043 (VHH)
VHH: EVQLVESGGGSVQPGGSLRLSCAASGRANSINWFGWFRQTPGKEREFVAGIRWSDAYTEYANSVKGRFTISRDNSKNTVYLQMDSLRPEDTAVYYCVLDLSTVRYWGQGTLVTVSS
notes: variant of IL17MS13B03; Kabat numbering
Consider B8, for which the koff in [15] turned out to be 0.000585 s⁻¹; in experiment [16], 0.00811 s⁻¹; in experiment [17] it was 0.000276 s⁻¹.

B9: IL17MS3044 (VHH)
VHH: EVQLVESGGGLVQPGDSLRLSCAASGRANSINWFGWFRQTPGKEREFVAGIRWSDAYTEYANSVKGRFTISRDNSKNTVDLQMDSLRPEDTAVYYCVLDLSTVRYWGQGTLVTVSS
notes: as for B8
For the molecule B9, the koff in experiment [15] was found to be 0.000253 s⁻¹; in [16] it was 0.00776 s⁻¹; in experiment [17] it was 0.000212 s⁻¹.

B10: IL17MS3045 (VHH)
VHH: EVQLVESGGGSVQPGDSLRLSCAASGRANSINWFGWFRQAPGKEREFVAGIRWSDAYTEYANSVKGRFTISRDNSKNTVDLQMDSLRPEDTAVYYCVLDLSTVRYWGQGTLVTVSS
notes: as for B8
With B10, the figures for the dissociation rate constant (koff) in experiment [15], in [16] and in experiment [17] were 0.000616 s⁻¹, 0.00794 s⁻¹ and 0.00027 s⁻¹, respectively.

B11: 16A04 (VHH)
VHH: EVQLVESGGGLVQAGGSLRLSCAASGRTFSSYVVGWFRQAPGKEREFIGAISGSGDSIYYAVSEKDRFTISRDNGKNTLYLQMSSLKAEDTAVYYCTADQEFGYLRFGRSEYWGQGTQVTVSS
notes: Class 3; also called IL17MS16A04
Consider B11, for which the binding result in [1] was “no binding (tested: 250 nM)”; in experiment [2], “no binding (tested: 250 nM)”; in experiment [3] it was “no binding”; in experiment [4] it was “no binding”; in experiment [5], “no binding”; in experiment [6] it was “no binding”.

For orientation: koff means the first-order rate constant of dissociation. Low values mean a long-lived complex, high ones a short-lived complex.
